First the molecules themselves.
B1: LINE1-full (parent)
chain: UACGUAGGUGGUUUUCCCCUGAUAGUGCUAAGGGGGCCUGGAAGUUUGGACUGGGCAGAGCUCAACACAGCGUGGCAAAGUGGCUGUGGCUAGACUGCCUCUCUGGAUUCCUCGUCACUCAGCAGGGCAUCUCUGAGAGAAAUGCC

In the data set the parent is B1. Nature of the data set: self-cleavage, relative activity (ratio to wild type); higher = more cleavage; in vitro, sequencing; the parent is a self-cleaving ribozyme.
Consider UACGUAGGUGGUUUUCCCCUGAUAGUGCUAAGGGGGCCUGGAAGUUAGGACUGGGCAGAGCUCAACACAGCGUGGCAAAGUGGCUGUGGCUAGACUGCCUCUCUGGAUUCCUCGUCACUCAGCACGGCAUCUCUGAGAGAAAUGCC [U47A G125C], for which the self-cleavage was found to be 1.49.
As for UACGUAGGUGGUUUUCCCCUGAUAGUGCUAAGGGGGCCUGGAAGUUAGGACUGGGCAGAGCUCAACACAGCGUGGCAAAGUGGCUGUGGCUAGACUGCCUCUCUGGAUUCCUCGUCACUCAGCAAGGCAUCUCUGAGAGAAAUGCC [U47A G125A], the self-cleavage is 1.11.
With UACGUAGGUGGUUUUCCCCUGAUAGUGCUAAGGGGGCCUGGAAGUUAGGACUGGGCAGAGCUCAACACAGCGUGGCAAAGUGGCUGUGGCUAGACUGCCUCUCUGGAUACCUCGUCACUCAGCAGGGCAUCUCUGAGAGAAAUGCC [U47A U109A] the figure was 1.74; with UACGUAGGUGGUUUUCCCCUGAUAGUGCUAAGGGGGCCUGGAAGUUAGGACUGGGCAGAGCUCAACACAGCGUGGCAAAGUGGCGGUGGCUAGACUGCCUCUCUGGAUUCCUCGUCACUCAGCAGGGCAUCUCUGAGAGAAAUGCC [U47A U85G], 0.17.
Consider UACGUAGGUGGUUUUCCCCUGAUAGUGCUAAGGGGGCCUGGAAGUUAGGACUGGGCAGAGCUCAACACAGCGUGGCAAAGUGGCAGUGGCUAGACUGCCUCUCUGGAUUCCUCGUCACUCAGCAGGGCAUCUCUGAGAGAAAUGCC [U47A U85A], for which the self-cleavage came out at 0.04.
As to UACGUAGGUGGUUUUCCCCUGAUAGUGCUAAGGGGGCCUGGAAGUUAGGACUGGGCAGAGCUCAACACAGCGUGGCAAAGUGGCUGUGGCUAGACUGCCUCUCUGGAUUCCUCGUCACUCAGCAGGGCACCUCUGAGAGAAAUGCC [U47A U130C], the self-cleavage turned out to be 1.51.
With UACGUAGGUGGUUUUCCCCUGAUAGUGCUAAGGGGGCCUGGAAGUUAGGACUGGGCAGAGCUCAACACAGCGUGGCAAAGAGGCUGUGGCUAGACUGCCUCUCUGGAUUCCUCGUCACUCAGCAGGGCAUCUCUGAGAGAAAUGCC [U47A U81A] the figure was 1.11.
In the case of UACGUAGGUGGUUUUCCCCUGAUAGUGCUAAGGGGGCCUGGAAGUUAGGACUGGGCAGAGCUCAACACAGCGUGGCAAAGUGGCUGUGGCUAGACUGCCUCUCUGGAUUCCUCGUCACACAGCAGGGCAUCUCUGAGAGAAAUGCC [U47A U119A], the self-cleavage amounted to 1.34.
With UACGUAGGUGGUUUUCCCCUGAUAGUGCUAAGGGGGCCUGGAAGUUAGGACUGGGCAGAGCUCAACACAGCGUGGCAAAGUGGCUGUGGCUAGACUGCCUCUCUGGAUUCCUCGUCACUCAGCAGGGCAUCUCUGAGAGAAAAGCC [U47A U143A] the figure was 1.27; with UACGUAGGUGGUUUUCCCCUGAUAGUGCUAAGGGGGCCUGGAAGUUAGGACUGGGCAGAGCUCAACACAGCGUGGCAAAGUGGCUGCGGCUAGACUGCCUCUCUGGAUUCCUCGUCACUCAGCAGGGCAUCUCUGAGAGAAAUGCC [U47A U87C], 0.19; with UACGUAGGUGGUUUUCCCCUGAUAGUGCUAAGGGGGCCUGGAAGUUAGGACUGGGCAGAGCUCAACACAGCGUGGCAAAGUGGCUGUGGCUAGACUGCCCCUCUGGAUUCCUCGUCACUCAGCAGGGCAUCUCUGAGAGAAAUGCC [U47A U100C], 1.81.
With UACGUAGGUGGUUUUCCCCUGAUAGUGCUAAGGGGGCCUGGAAGUUAGGACUGGGCAGAGCUCAACACAGCGUGGCAAAGUGGCUGUGGCUAGACAGCCUCUCUGGAUUCCUCGUCACUCAGCAGGGCAUCUCUGAGAGAAAUGCC [U47A U96A] the figure was 0.08.
With UACGUAGGUGGUUUUCCCCUGAUAGUGCUAAGGGGGCCUGGAAGUUAGGACAGGGCAGAGCUCAACACAGCGUGGCAAAGUGGCUGUGGCUAGACUGCCUCUCUGGAUUCCUCGUCACUCAGCAGGGCAUCUCUGAGAGAAAUGCC [U47A U52A] the figure was 1.84; with UACGUAGGUGGUUUUCCCCUGAUAGUGCUAAGGGGGCCUGGAAGUUAGGACUGGGCAGAGCUCAACACAGCGUGGCAAAGUGGCUGUGGCUAGACUGCCUCUCAGGAUUCCUCGUCACUCAGCAGGGCAUCUCUGAGAGAAAUGCC [U47A U104A], 0.59; with UACGUAGGUGGUUUUCCCCUGAUAGUGCUAAGGGGGCCUGGAAGUUAGGACUGGGCAGAGCUCAACACAGCGUGGCAAAGUGGCUGUGGCUAGACUGCCUCUCUGGAUUCCUCGUCACUCAGCAGGGCAUCCCUGAGAGAAAUGCC [U47A U132C], 1.41.
As for UACGUAGGUGGUUUUCCCCUGAUAGUGCUAAGGGGGCCUGGAAGUUAGGACUGGGCAGAGCUCAACACAGCGUGGCAAAGUGGCUGUGGCUAGACUGCCUCUCUGGAUUCCACGUCACUCAGCAGGGCAUCUCUGAGAGAAAUGCC [U47A U112A], the self-cleavage turned out to be 0.7.
On to UACGUAGGUGGUUUUCCCCUGAUAGUGCUAAGGGGGCCUGGAAGUUAGGACUGGGCAGAGCUCAACACAGCGUGGCAAAGUGGCUGUGGCUAGACUGCCUCUCUGGAUUCCCCGUCACUCAGCAGGGCAUCUCUGAGAGAAAUGCC [U47A U112C], for which the self-cleavage came out at 1.15.
With UACGUAGGUGGUUUUCCCCUGAUAGUGCUAAGGGGGCCUGGAAGUUAGGACUGGGCAGAGCUCAACACAGCGCGGCAAAGUGGCUGUGGCUAGACUGCCUCUCUGGAUUCCUCGUCACUCAGCAGGGCAUCUCUGAGAGAAAUGCC [U47A U73C] the figure was 1.45.
For the variant UACGUAGGUGGUUUUCCCCUGAUAGUGCUAAGGGGGCCUGGAAGUUAGGACUGGGCAGAGCUCAACACAGCGAGGCAAAGUGGCUGUGGCUAGACUGCCUCUCUGGAUUCCUCGUCACUCAGCAGGGCAUCUCUGAGAGAAAUGCC [U47A U73A], the self-cleavage was 1.11.
With UACGUAGGUGGUUUUCCCCUGAUAGUGCUAAGGGGGCCUGGAAGUUAGGACUGGGCAGAGCUCAACACAGCGUGGCAAAGUGGCUGUGGCUAGACUGCCUCUCUGAAUUCCUCGUCACUCAGCAGGGCAUCUCUGAGAGAAAUGCC [U47A G106A] the figure was 1.3.
